Consider four molecules from patent US20100055034A1 (DOMPE PHA MA S P A, published 2010).

In test [1] the target is T1, human folate receptor alpha as expressed on cells (human, UniProt P15328 25-234).
T1 construct: GPI-anchored on the cell surface; Natural expression on OVCAR3 and IGROV1 ovarian carcinoma cells, transfected into A431 cells (A431-FR); also called alpha FR; FR-alpha
The test can be described thus: cell ELISA on fixed OVCAR3 cells, F(ab')2; KD = concentration at half of plateau signal. Here is the method: (§1) 4×10⁴ cells (human ovarian carcinoma cell lines OVCAR3 (ATCC) and IGROVI (a gift from Dr J. Bénard, Institut Gustave Roussy, Villejuif, France), and A431-FR⁽¹⁷⁾ cells which are human epidermoid carcinoma cells transfected with folate receptor alpha,) were seeded in each well of a 96 wells format plate, and grown until a confluent monolayer was obtained. Cells were fixed, for 5 minutes, at room temperature with 0.1% glutaraldehyde in PBS. Plates were washed twice with PBS, then once (5 minutes) with 0.1M glycine in PBS+0.02% NaN₃, successively five times with PBS and finely with PBS containing 1% BSA and 0.02% NaN₃.
(§2) An anti-human IgG (Fab specific, Sigma) peroxidase conjugated diluted 1:1000 in PBS+0.03% BSA was used to reveal antibodies fragment binding.
(§3) Since no signal could be detected on the A431 mock cells which are cells transfected with the empty vector, as compared to the cells transfected with FR-alpha, both AFRA and C4 antibodies were judged to be specific for the alpha folate receptor. […] Table I reports ELISA determination of KD values of F(ab′)₂ of C4 and AFRA antibodies fragments. The KD was determined as to be the concentration at which half of the ELISA plateau signal is obtained.
Background: In an ELISA, binding on a coated surface is turned into a signal by an enzyme label.

For test [2], the target named is T1, human folate receptor alpha as …. In words: cell ELISA on fixed IGROV1 cells, F(ab')2; KD = concentration at half of plateau signal. As for the experimental part:
as §1, §2, §3

The target is the same in test [3]. The test can be described thus: cell ELISA on fixed A431-FR cells, F(ab')2; KD = concentration at half of plateau signal. Here is the method:
as §1, §2, §3

In test [4] the target is T2, recombinant soluble human alpha folate receptor with His6 purification tag (human, UniProt P15328 25-232).
T2 construct: Expressed in CHO-K1 cells and purified from the supernatant; also called soluble alpha FR; recombinant FR
T2 sequence (P15328 other isoform, or with tags, fused parts or gaps limits assumed): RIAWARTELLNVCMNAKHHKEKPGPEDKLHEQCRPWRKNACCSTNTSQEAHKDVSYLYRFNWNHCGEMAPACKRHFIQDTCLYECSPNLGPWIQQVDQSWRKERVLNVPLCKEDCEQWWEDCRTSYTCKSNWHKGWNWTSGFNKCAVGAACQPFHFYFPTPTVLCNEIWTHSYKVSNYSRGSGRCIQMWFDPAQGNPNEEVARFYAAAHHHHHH
In words: SPR (BIAcore), KD of AFRA Fab against KD of C4 Fab. Here is the method:
(§4) FIG. 3 (BIAcore binding): Determination of antibody fragments binding parameters on alpha folate receptor. For this several concentrations of Fab monomer (from 3 to 200 nM) were flowed in the sensorchip cell previously coated with the recombinant receptor and binding was registered for 30 minutes. After this time period washing was monitored for another twenty minutes.
(§5) The target protein was coated on […] BIAcore sensorchip and several concentrations of both antibody fragments were used to determine the binding kinetics. In particular, recombinant FR was covalently bound to a CM5 sensor chip using the amine coupling kit (Pharmacia) with an antigen concentration of 0.6 μg/ml in 10 mM sodium acetate, pH 4.8 yielding a surface of 280 RU. Residual activated groups were blocked by injection of […] ethanolamine (1.0 M pH 8.5). […] Evaluation was performed for at least 30 minutes. Subsequently, detachment of residual antibody bound to the sensor chip was performed with 100 mM Glycine Buffer pH 2.7.
A general note: In SPR one partner is held on a chip, and binding of the other changes the refractive index at the surface.

Test [5] addresses T2, recombinant soluble human alpha folate …. The test can be described thus: SPR (BIAcore), recombinant FR amine-coupled to CM5 chip, Fab monomer 3.125-200 nM in flow. Here is the method:
as §4, §5

Positions count from the first letter of the chain named. Names may count otherwise.

One may read the Kd as the equilibrium constant for the complex coming apart.

T1 sequence (P15328 25-234): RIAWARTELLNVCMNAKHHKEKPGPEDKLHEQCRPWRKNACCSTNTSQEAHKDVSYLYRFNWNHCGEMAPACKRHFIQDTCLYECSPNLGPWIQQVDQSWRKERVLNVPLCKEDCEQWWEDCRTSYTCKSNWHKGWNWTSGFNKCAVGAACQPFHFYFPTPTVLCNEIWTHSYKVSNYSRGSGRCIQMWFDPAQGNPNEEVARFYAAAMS

B1: C4 F(ab')2 natural dimer (other)
light: QSALTQPASVSGSPGQSITISCTGTSSDVGSYNLVSWYQQHPGKAPKLMIYEGSKRPSGVSNRFSGSKSGNAASLTISGLQAEDEADYYCQSYDSSLSVVFGGGTKLTVLGQPKAAPSVTLFPPSSEELQANKATLVCLISDFYPGAVTVAWKADSSPVKAGVETTTPSKQSNNKYAASSYLSLTPEQWKSHRGYSCQVTHEGSTVEKTVAPTECS
heavy: QVQLVESGGGLVQPGRSLRLSCTTSGFTFGDYAMIWARQAPGKGLEWVSSISSSSSYIYYADSVKGRFTISRDNAKNSLYLQMNSLRAEDTAVYYCARERYDFWSGMDVWGKGTTVTVSSASTKGPSVFPLAPSSKSTSGGTAALGCLVKDYFPEPVTVSWNSGALTSGVHTFPAVLQSSGLYSLSSVVTVPSSSLGTQTYICNVNHKPSNTKVDKKDKTSC
modifications: C-terminal hinge cysteine disulfide-bonded to the second Fab'
notes: The preparation is heavily contaminated: 29% L2H2 dimer, 43% L2H pseudo-dimer and 25% free heavy chain; For heavy chain position 1 see the note of m2; also called F(ab')2-C4
With B1, the Kd in test [1] came to 11 nM; in test [2], 118 nM; in test [3] it was 1.2 nM.

B2: AFRA F(ab')2 natural dimer (other)
light: EIVLTQSPASLAVSPGQRATITCRASESVSFLGINLIHWYQQKPGQPPKLLIYQASNKDTGVPARFSGSGSGTDFTLTINPVEANDTANYYCLQSKNFPPYTFGQGTKLEIKRTVAAPSVFIFPPSDEQLKSGTASVVCLLNNFYPREAKVQWKVDNALQSGNSQESVTEQDSKDSTYSLSSTLTLSKADYEKHKVYACEVTHQGLSSPVTKSFNRGEC
heavy: B1 heavy with Q1N
modifications: C-terminal hinge cysteine disulfide-bonded to the second Fab'
notes: F(ab')2 made by natural oxidation of Fab'; By SDS-PAGE the preparation is 80% L2H2 dimer, 16% L2H and 4% free heavy chain; For Q1N see the note of m1; also called F(ab')2-AFRA; AFRA dimer
In the case of B2, the Kd in test [1] came out at 26 nM; in test [2], 57 nM; in test [3], 2.5 nM.

B3: AFRA Fab fragment (Anti Folate Receptor Alpha human Fab, kappa light chain) (Fab, V domains shown)
VH: NVQLVESGGGLVQPGRSLRLSCTTSGFTFGDYAMIWARQAPGKGLEWVSSISSSSSYIYYADSVKGRFTISRDNAKNSLYLQMNSLRAEDTAVYYCARERYDFWSGMDVWGKGTTVTVSS
VL: EIVLTQSPASLAVSPGQRATITCRASESVSFLGINLIHWYQQKPGQPPKLLIYQASNKDTGVPARFSGSGSGTDFTLTINPVEANDTANYYCLQSKNFPPYTFGQGTKLEIKR
notes: Made in E. coli periplasm; also called AFRA monomer; Fab AFRA
Take B3: in test [4], the “fold lower KD than C4” value came out at 3 fold. Moreover, the equilibrium dissociation constant (Kd) in test [5] was 43.9 nM.

B4: C4 Fab fragment (human anti-folate receptor alpha Fab, lambda light chain) (Fab, V domains shown)
VH: B3 VH with N1Q
VL: QSALTQPASVSGSPGQSITISCTGTSSDVGSYNLVSWYQQHPGKAPKLMIYEGSKRPSGVSNRFSGSKSGNAASLTISGLQAEDEADYYCQSYDSSLSVVFGGGTKLTVLG
notes: It says only that C4 and AFRA share the heavy chain except for Q1N in AFRA, so C4 has Q at position 1; also called Fab C4
For the molecule B4, in test [5], the dissociation constant Kd was determined as 168 nM.
